# Source: the supplement of paper PMC11316812
# ± gives the standard deviation of the averaged measurements.
# How the values were obtained:
# MCF7 = assay: percentage of EdU-negative (G0-arrested) nuclei per well, 72 h; higher = more G0 arrest; conditions: reference: sequence is the full UniProt precursor, the tested protein was the secreted form or ectodomain
# hTERT-HMEC = assay: as above; conditions: reference: sequence is the full UniProt precursor, the tested protein was the secreted form or ectodomain
# [1] = protein concentration 0.0147125 µM
# [2] = protein concentration 0.147125 µM
# [3] = protein concentration 0.019925 µM
# [4] = protein concentration 0.19925 µM
# [5] = protein concentration 0.01051 µM
# [6] = protein concentration 0.1051 µM
# [7] = protein concentration 0.00828571 µM
# [8] = protein concentration 0.0828571 µM
# [9] = protein concentration 0.0225 µM
# [10] = protein concentration 0.0357143 µM
# [11] = protein concentration 0.357143 µM
# 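Note: secreted proteins added to cultured cells, EdU pulse at the end, nuclei found by Hoechst imaging, EdU status from nuclear versus surrounding ring intensity ratio, PBS as neutral control.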
sequence,measurement,setting,value
MDTPRVLLSAVFLISFLWDLPGFQQASISSSSSSAELGSTKGMRSRKEGKMQRAPRDSDAGREGQEPQPRPQDEPRAQQPRAQEPPGRGPRVVPHEYMLSIYRTYSIAEKLGINASFFQSSKSANTITSFVDRGLDDLSHTPLRRQKYLFDVSMLSDKEELVGAELRLFRQAPSAPWGPPAGPLHVQLFPCLSPLLLDARTLDPQGAPPAGWEVFDVWQGLRHQPWKQLCLELRAAWGELDAGEAEARARGPQQPPPPDLRSLGFGRRVRPPQERALLVVFTRSQRKNLFAEMREQLGSAEAAGPGAGAEGSWPPPSGAPDARPWLPSPGRRRRRTAFASRHGKRHGKKSRLRCSKKPLHVNFKELGWDDWIIAPLEYEAYHCEGVCDFPLRSHLEPTNHAIIQTLMNSMDPGSTPPSCCVPTKLTPISILYIDAGNNVVYKQYEDMVVESCGCR [Q6KF10],percentage of EdU-negative,MCF7; [1],25.3 ± 1.3%
same,percentage of EdU-negative,MCF7; [2],28.7 ± 2.5%
same,percentage of EdU-negative,hTERT-HMEC; [1],4.28 ± 0.073%
same,percentage of EdU-negative,hTERT-HMEC; [2],5.35 ± 0.57%
MTILGTTFGMVFSLLQVVSGESGYAQNGDLEDAELDDYSFSCYSQLEVNGSQHSLTCAFEDPDVNITNLEFEICGALVEVKCLNFRKLQEIYFIETKKFLLIGKSNICVKVGEKSLTCKKIDLTTIVKPEAPFDLSVVYREGANDFVVTFNTSHLQKKYVKVLMHDVAYRQEKDENKWTHVNLSSTKLTLLQRKLQPAAMYEIKVRSIPDHYFKGFWSEWSPSYYFRTPEINNSSGEMDPILLTISILSFFSVALLVILACVLWKKRIKPIVWPSLPDHKKTLEHLCKKPRKNLNVSFNPESFLDCQIHRVDDIQARDEVEGFLQDTFPQQLEESEKQRLGGDVQSPNCPSEDVVITPESFGRDSSLTCLAGNVSACDAPILSSSRSLDCRESGKNGPHVYQDLLLSLGTTNSTLPPPFSLQSGILTLNPVAQGQPILTSLGSNQEEAYVTMSSFYQNQ,percentage of EdU-negative,MCF7; [3],28.1 ± 1.4%
same,percentage of EdU-negative,MCF7; [4],27.6 ± 2.4%
same,percentage of EdU-negative,hTERT-HMEC; [3],5.3 ± 0.72%
same,percentage of EdU-negative,hTERT-HMEC; [4],5.96 ± 0.062%
MLKKPLSAVTWLCIFIVAFVSHPAWLQKLSKHKTPAQPQLKAANCCEEVKELKAQVANLSSLLSELNKKQERDWVSVVMQVMELESNSKRMESRLTDAESKYSEMNNQIDIMQLQAAQTVTQTSADAIYDCSSLYQKNYRISGVYKLPPDDFLGSPELEVFCDMETSGGGWTIIQRRKSGLVSFYRDWKQYKQGFGSIRGDFWLGNEHIHRLSRQPTRLRVEMEDWEGNLRYAEYSHFVLGNELNSYRLFLGNYTGNVGNDALQYHNNTAFSTKDKDNDNCLDKCAQLRKGGYWYNCCTDSNLNGVYYRLGEHNKHLDGITWYGWHGSTYSLKRVEMKIRPEDFKP,percentage of EdU-negative,MCF7; [5],24.6 ± 2.7%
same,percentage of EdU-negative,MCF7; [6],25.2 ± 0.9%
same,percentage of EdU-negative,hTERT-HMEC; [5],4.85 ± 0.3%
same,percentage of EdU-negative,hTERT-HMEC; [6],5.52 ± 0.31%
MAPRTLWSCYLCCLLTAAAGAASYPPRGFSLYTGSSGALSPGGPQAQIAPRPASRHRNWCAYVVTRTVSCVLEDGVETYVKYQPCAWGQPQCPQSIMYRRFLRPRYRVAYKTVTDMEWRCCQGYGGDDCAESPAPALGPASSTPRPLARPARPNLSGSSAGSPLSGLGGEGPGESEKVQQLEEQVQSLTKELQGLRGVLQGLSGRLAEDVQRAVETAFNGRQQPADAAARPGVHETLNEIQHQLQLLDTRVSTHDQELGHLNNHHGGSSSSGGSRAPAPASAPPGPSEELLRQLEQRLQESCSVCLAGLDGFRRQQQEDRERLRAMEKLLASVEERQRHLAGLAVGRRPPQECCSPELGRRLAELERRLDVVAGSVTVLSGRRGTELGGAAGQGGHPPGYTSLASRLSRLEDRFNSTLGPSEEQEESWPGAPGGLSHWLPAARGRLEQLGGLLANVSGELGGRLDLLEEQVAGAMQACGQLCSGAPGEQDSQVSEILSALERRVLDSEGQLRLVGSGLHTVEAAGEARQATLEGLQEVVGRLQDRVDAQDETAAEFTLRLNLTAARLGQLEGLLQAHGDEGCGACGGVQEELGRLRDGVERCSCPLLPPRGPGAGPGVGGPSRGPLDGFSVFGGSSGSALQALQGELSEVILSFSSLNDSLNELQTTVEGQGADLADLGATKDRIISEINRLQQEATEHATESEERFRGLEEGQAQAGQCPSLEGRLGRLEGVCERLDTVAGGLQGLREGLSRHVAGLWAGLRETNTTSQMQAALLEKLVGGQAGLGRRLGALNSSLQLLEDRLHQLSLKDLTGPAGEAGPPGPPGLQGPPGPAGPPGSPGKDGQEGPIGPPGPQGEQGVEGAPAAPVPQVAFSAALSLPRSEPGTVPFDRVLLNDGGYYDPETGVFTAPLAGRYLLSAVLTGHRHEKVEAVLSRSNQGVARVDSGGYEPEGLENKPVAESQPSPGTLGVFSLILPLQAGDTVCVDLVMGQLAHSEEPLTIFSGALLYGDPELEHA [A0A0C4DFX3],percentage of EdU-negative,MCF7; [7],26.3 ± 1.3%
same,percentage of EdU-negative,MCF7; [8],30.4 ± 3.6%
same,percentage of EdU-negative,hTERT-HMEC; [7],4.9 ± 0.43%
same,percentage of EdU-negative,hTERT-HMEC; [8],4.36 ± 0.72%
MPAVFMLASSSALQCGRGVPRFPRTEVGAGHSVNEETKAEKVGNQTSVIPATSRQAALGTSWTQRRTQPLQERSHWHPRGNNASGMGGHRMFPGPLRGPAAQVLENECGSLGRAAEGRS [Q8N2X6],percentage of EdU-negative,MCF7; [9],24.5 ± 1.8%
same,percentage of EdU-negative,MCF7; protein concentration 0.225 µM,24.7 ± 0.9%
same,percentage of EdU-negative,hTERT-HMEC; [9],4.66 ± 0.059%
same,percentage of EdU-negative,hTERT-HMEC; protein concentration 0.225 µM,4.77 ± 0.18%
MAQTNSFFMLISSLMFLSLSQGQESQTELPNPRISCPEGTNAYRSYCYYFNEDPETWVDADLYCQNMNSGNLVSVLTQAEGAFVASLIKESSTDDSNVWIGLHDPKKNRRWHWSSGSLVSYKSWDTGSPSSANAGYCASLTSCSGFKKWKDESCEKKFSFVCKFKN,percentage of EdU-negative,MCF7; [10],27 ± 1.8%
same,percentage of EdU-negative,MCF7; [11],24.6 ± 0.83%
same,percentage of EdU-negative,hTERT-HMEC; [10],5.51 ± 1.2%
same,percentage of EdU-negative,hTERT-HMEC; [11],5.35 ± 1.6%
